Results reported in publication PMC9204835 (Journal of the American Chemical Society, 2022).

Target: the molecule itself
Assay: crystal structure

B1: SpeY-E269A/E270A double mutant (enzyme, Streptomyces spectabilis ATCC 27741)
chain: MSVRLADGKVRNPEGIEVNASLQCNMRCQSCAHLSPLYRRENADPAEIHDTLSVLARSYHASYAKIMGGEPLLHPDVVGLIEAVRATGISDTVLVATNGTLLHRATERFWQAVDSLEISVYPSRMIAPEEIERYRVLAREHGVSLLVNYYGHFRAVYSESGTDAPDLVRDVFDTCKLAHFWNSHTVYDGWLYRCPQSVFMPRQLRDGGWDPRVDGLRIEDDPAFLERLHRFLTADDPLRACRNCLGSVGKLHPHQELPRAGWQVTEQLAALVDYPFLKVCKDDITADDGCVERSLSAPVGGA
- binding result: binds
